According to patent US20110171242A1 (published 2011):
Changes are numbered by the printed parent chain. In names and notes the source's numbering stands.

T1: LTα1β2 complex from II-23.D7 cells (human, UniProt P01374 35-205; Q06643 1-244)
T1 construct: also called LTβ (33 kDa) and LTα (23-25 kDa) complex
T1 sequence (looked up) 1: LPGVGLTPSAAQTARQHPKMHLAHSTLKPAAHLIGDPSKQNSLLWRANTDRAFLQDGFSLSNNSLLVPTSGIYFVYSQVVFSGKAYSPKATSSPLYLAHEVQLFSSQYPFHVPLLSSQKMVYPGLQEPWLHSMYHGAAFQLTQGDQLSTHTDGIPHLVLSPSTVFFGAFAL
T1 sequence (looked up) 2: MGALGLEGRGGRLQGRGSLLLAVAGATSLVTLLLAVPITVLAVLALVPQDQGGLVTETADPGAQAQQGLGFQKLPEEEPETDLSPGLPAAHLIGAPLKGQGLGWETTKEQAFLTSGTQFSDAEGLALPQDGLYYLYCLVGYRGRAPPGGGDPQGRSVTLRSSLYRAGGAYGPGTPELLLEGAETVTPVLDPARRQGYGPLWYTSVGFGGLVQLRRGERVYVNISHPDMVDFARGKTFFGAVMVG

T2: TNFR60:Fc (human, UniProt P19438 30-211, limits assumed)
T2 construct: Previously described construct (Crowe 1994); also called TNFR:Fc; TNFR1-Fc; not shown: Fc region of human IgG1
T2 sequence (looked up): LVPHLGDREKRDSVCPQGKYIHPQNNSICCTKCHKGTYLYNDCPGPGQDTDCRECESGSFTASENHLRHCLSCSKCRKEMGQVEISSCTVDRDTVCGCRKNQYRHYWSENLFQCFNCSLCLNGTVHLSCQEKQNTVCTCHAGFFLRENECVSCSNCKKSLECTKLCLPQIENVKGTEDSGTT

T3: TNFR1 on normal human dermal fibroblasts (human, UniProt P19438 30-455)
T3 sequence (looked up): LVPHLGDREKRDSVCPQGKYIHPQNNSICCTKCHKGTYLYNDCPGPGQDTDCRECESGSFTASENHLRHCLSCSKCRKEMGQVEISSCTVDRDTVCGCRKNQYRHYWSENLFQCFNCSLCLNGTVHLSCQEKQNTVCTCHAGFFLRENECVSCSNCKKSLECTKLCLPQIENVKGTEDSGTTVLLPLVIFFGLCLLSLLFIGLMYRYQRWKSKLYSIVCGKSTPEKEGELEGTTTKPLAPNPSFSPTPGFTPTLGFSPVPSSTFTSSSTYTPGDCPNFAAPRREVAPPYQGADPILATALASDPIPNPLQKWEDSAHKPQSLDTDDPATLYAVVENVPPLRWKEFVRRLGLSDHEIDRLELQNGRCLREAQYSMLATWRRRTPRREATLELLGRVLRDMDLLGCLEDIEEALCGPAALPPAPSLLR

B1: human HVEM:Fc (Fc of human IgG1) (Fc fusion, UniProt Q92956 39-184, looked up)
chain: LPSCKEDEYPVGSECCPKCSPGYRVKEACGELTGTVCEPCPPGTYIAHLNGLSKCLQCQMCDPAMGLRASRNCSRTENAVCGCSPGHFCIVQDGDHCAACRAYATSSPGQRVQKGGTESQDTLCQNCPPGTFSPNGTLEECQHQTK
notes: range 1-184; Bivalent chimeric protein made with baculovirus vector pVL1392; also called huHVEM:Fc; hu HVEM:Fc; not shown: Fc region of human IgG1
B2: murine LTβR:Fc (Fc fusion, mouse, UniProt P50284 31-221, looked up)
chain: QLVPPYRIENQTCWDQDKEYYEPMHDVCCSRCPPGEFVFAVCSRSQDTVCKTCPHNSYNEHWNHLSTCQLCRPCDIVLGFEEVAPCTSDRKAECRCQPGMSCVYLDNECVHCEEERLVLCQPGTEAEVTDEIMDTDVNCVPCKPGHFQNTSSPRARCQPHTRCEIQGLVEAAPGTSYSDTICKNPPEPGAM
notes: range 1-221; Encoded range includes the signal peptide; also called muLTβR:Fc; mouse LTβR:Fc; not shown: Fc region; human IgG1 by the opening sentence of the paragraph, not restated for this construct
B3: p30 (LIGHT), the cell surface HVEM ligand of activated II-23.D7 cells and human T cells (ligand)
chain: MEESVVRPSVFVVDGQTDIPFTRLGRSHRRQSCSVARVGLGLLLLLMGAGLAWQGWFLLQLHWRLGEMVTRLPDGPAGSWEQLIQERRSHEVNPAAHLTGANSSLTGSGGPLLWETQLGLAFLRGLSYHDGALVVTKAGYYYIYSKVQLGGVGCPLGLASTITHGLYKRTPRYPEELELLVSQQSPCGRATSSSRVWWDSSFLGGVVHLEAGEEVVVRVLDERLVRLRDGTRSYFGAFMV
notes: see m1; also called 30 kDa protein; cell surface ligand for HVEM
B4: LIGHTt66-FLAG (ligand, not shown: small tags and cut ends)
chain: EMVTRLPDGPAGSWEQLIQERRSHEVNPAAHLTGANSSLTGSGGPLLWETQLGLAFLRGLSYHDGALVVTKAGYYYIYSKVQLGGVGCPLGLASTITHGLYKRTPRYPEELELLVSQQSPCGRATSSSRVWWDSSFLGGVVHLEAGEEVVVRVLDERLVRLRDGTRSYFGAFMV
notes: also called soluble homotrimeric LIGHT; recombinant soluble LIGHT
B5: LIGHT t66 Q117T (ligand, not shown: small tags and cut ends)
chain: B4 chain with Q51T
notes: FLAG-tagged point mutant from transiently transfected 293T cells, homotrimer; also called Q11TT
B6: LIGHT t66 G119E (ligand, not shown: small tags and cut ends)
chain: B4 chain with G53E
notes: FLAG-tagged point mutant from transiently transfected 293T cells, homotrimer; also called LIGHTG119E; LIGHT-G119E
B7: LIGHT t66 L120Q (ligand, not shown: small tags and cut ends)
chain: B4 chain with L54Q
notes: FLAG-tagged point mutant from transiently transfected 293T cells, homotrimer; also called L12OQ
B8: LIGHT t66 Y173F (ligand, not shown: small tags and cut ends)
chain: B4 chain with Y107F
notes: FLAG-tagged point mutant from transiently transfected 293T cells, homotrimer
B9: LTα homotrimer (ligand, UniProt P01374 35-205, looked up)
chain: T1 sequence (looked up) 1

Key:
[1] = target: B9; assay: precipitation of 35S-labelled proteins with receptor:Fc and protein G, SDS-PAGE
[2] = target: TNF (UniProt P01375 77-233); assay: precipitation of 35S-labelled secreted proteins of activated II-23.D7 cells with receptor:Fc 10 µg/ml and protein G, SDS-PAGE
Description: (§1) The culture supernatants were harvested and the cells lysed in buffer containing 2% NP40, HEPES pH7.0, 20 mM EDTA, 150 mM NaCl with leupeptin and aprotinin (at 10 μg/ml), PMSF (1 mM) and iodoacetamide (20 mM). The extract was precleared with human IgG (10 μg), where indicated, anti-LT antibodies and protein G beads. The receptor:Fc fusion proteins (10 μg/ml) were then added to the samples and precipitated with protein G beads. Labeled proteins were analyzed by reducing SDS-PAGE and phosphoimage (pixel range 6-200).

[3] = target: B3; assay: flow cytometry, graded HVEM:Fc on activated II-23.D7 cells
Description: II-23.D7 cells were activated for 4 hours at 37° C. with phorbol myristate acetate (PMA) (100 ng/ml), or PMA (100 ng/ml) and ionomycin (1 μg/ml). […] Stained cells were analyzed by flow cytometry (FACSCaliber, Becton-Dickenson). Receptor binding was determined by calculating the fluorescence intensity=(mean fluorescent channel) (% positive fluorescent events), where a positive event has a fluorescence value >98% of the value for normal IgG. Specific fluorescence intensity represents the fluorescence intensity after subtraction of the value for control IgG. Each histogram represents 10₄ events.

[4] = target: T1, LTα1β2 complex from II-23.D7 cells; assay: 2D electrophoresis of proteins bound to murine LTβR:Fc, FIG. 4A
[5] = target: T2, TNFR60:Fc; assay: precipitation from detergent extracts of activated II-23.D7 cells, SDS-PAGE and 2D electrophoresis
Description: as §1
II-23.D7 cells were activated with PMA (100 ng/ml) or PMA and ionomycin (1 μg/ml) for 2.5 hours, followed by labeling with ³⁵S-methionine and -cysteine as in the above two paragraphs. Cell extracts were pre-cleared with human IgG (5 μg) and protein G beads to remove nonspecifically binding proteins. […] In each case, the beads were washed three times to remove the contaminating proteins in the non-bound fraction.

[6] = target: B1; assay: SPR (BIAcore 1000), receptor:Fc amine-coupled to CM5 chip, LIGHT as analyte 100-500 nM, 25 C
Description: (§2) The sensor surface was equilibrated with PBS (20 mM sodium phosphate/150 mM NaCl, pH 7.4) and sensorgrams were collected at 25° C. and a flow rate of 5 μl/min. […] The sensor surface was regenerated after each cycle with a 10 μl pulse of 10 mM glycine pH 2.0. Sets of 5 analyte concentrations, 100 to 500 nM were collected, and analyzed by nonlinear regression using the BIlAevaluation software (2.1)™. Association and dissociation data were fitted on the basis of the simple AB⇄A+B model.

[7] = target: T4, human LTβR:Fc (human, UniProt P36941 31-227, limits assumed); assay: as above
T4 construct: Bivalent chimeric protein, previously described; also called huLTβR:Fc; hu LTβR:Fc; not shown: Fc region of human IgG1

[8] = target: LTβR (whole, in cells) (human, UniProt P36941 31-435); assay: cell-based or functional assay
[9] = target: T5, murine HVEM:Fc (mouse; human, UniProt Q80WM9 39-205; P01857 99-330 = IgG part); assay: ELISA, plate-bound receptor:Fc, M2 anti-FLAG detection
T5 construct: range 1-205;domain: Fc region; Produced in TN5 insect cells, protein A purified, 58 kDa reduced; Encoded range includes the signal peptide; also called muHVEM:Fc; mouse HVEM:Fc
Description: (§3) After washing with PBS/0.5% Tween, samples were applied diluted in PBS/3% BSA and incubated for 1 h at RT. After washing wells were incubated with monoclonal anti-FLAG (M2) (10 μg/ml in PBS/BSA) for 1 h at RT, washed and incubated with goat anti-mouse HRP (1:5000) for 1 hr at RT. […] The OD was measured at 415 nm in a SpectraMax plate reader (Molecular Devices Corp., Sunnyvale, Calif.).

[10] = target: B2; assay: as above
Description: as §3

[11] = target: T4, human LTβR:Fc; assay: SPR (BIAcore 1000), receptor:Fc amine-coupled to CM5 chip, LIGHT mutant as analyte
Description: as §2

[12] = target: B1; assay: SPR
Description: as §2

[13] = target: B1; assay: ELISA, plate-bound receptor:Fc, M2 anti-FLAG detection
Description: as §3

[14] = target: T3, TNFR1 on normal human dermal fibroblasts; assay: cell-based or functional assay

T4 sequence (P36941 31-227 limits assumed): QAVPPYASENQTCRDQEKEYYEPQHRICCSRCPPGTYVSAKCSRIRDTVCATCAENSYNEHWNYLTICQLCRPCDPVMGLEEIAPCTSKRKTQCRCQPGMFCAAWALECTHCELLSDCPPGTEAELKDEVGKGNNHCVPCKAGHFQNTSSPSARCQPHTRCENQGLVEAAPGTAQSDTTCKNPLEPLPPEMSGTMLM
T5 sequence (Q80WM9 other isoform, or with tags, fused parts or gaps): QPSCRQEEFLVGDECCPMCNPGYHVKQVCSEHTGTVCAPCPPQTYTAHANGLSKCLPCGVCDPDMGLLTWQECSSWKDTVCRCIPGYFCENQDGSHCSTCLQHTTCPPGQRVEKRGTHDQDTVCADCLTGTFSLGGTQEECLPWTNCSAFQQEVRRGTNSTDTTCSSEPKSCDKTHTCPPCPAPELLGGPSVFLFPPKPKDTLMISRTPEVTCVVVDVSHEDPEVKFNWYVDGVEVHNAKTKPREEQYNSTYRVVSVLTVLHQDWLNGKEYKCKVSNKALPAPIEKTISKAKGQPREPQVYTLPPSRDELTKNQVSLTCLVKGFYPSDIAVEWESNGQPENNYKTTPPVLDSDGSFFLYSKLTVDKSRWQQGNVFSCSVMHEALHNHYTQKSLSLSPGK
TNF, sequence (P01375 77-233 limits assumed): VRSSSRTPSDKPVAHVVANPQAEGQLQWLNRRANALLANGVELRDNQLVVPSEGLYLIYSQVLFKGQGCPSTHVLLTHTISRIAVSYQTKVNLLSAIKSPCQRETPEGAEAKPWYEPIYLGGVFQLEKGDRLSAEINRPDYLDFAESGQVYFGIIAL

Row | Binder | Kd [6] | koff [6] | kon [6] | Kd [7] | koff [7] | kon [7] | binding result [10] | also measured
1 | B1 |  |  |  |  |  |  |  | binding result [1]: binds; binding result [2]: no binding; EC50 [3]: ~20 nM
2 | B2 |  |  |  |  |  |  |  | binding result [4]: binds
3 | B3 |  |  |  |  |  |  |  | binding result [5]: no binding
4 | B4 | 3.9 nM | 4.8e-05 s⁻¹ | 12000 M⁻¹ s⁻¹ | 4.5 nM | 0.00012 s⁻¹ | 27000 M⁻¹ s⁻¹ |  | IC50 for inhibition of HCMV pp28 expression (western blot) [8]: ~0.4 nM; up-regulation of ICAM expression by NHDF cells (flow cytometry, 36 h, 5 nM) [8]: 4 fold; fold lower affinity than for the human receptor [9]: 10 fold; fold lower affinity than for the human receptor [10]: 10 fold
5 | B5 | 0.3 nM | 5e-06 s⁻¹ | 20000 M⁻¹ s⁻¹ | 1.5 nM | 4.5e-05 s⁻¹ | 32000 M⁻¹ s⁻¹ |  | 
6 | B6 | 114 nM | 0.002 s⁻¹ | 18000 M⁻¹ s⁻¹ |  |  |  | no binding | binding result [11]: no binding (tested: 100 to 500 nM); up-regulation of ICAM expression by NHDF cells (flow cytometry, 36 h, 20 nM) [8]: < 1.5 fold; binding result [9]: no binding; fold lower affinity than LIGHT t66 [12]: ~30 fold
7 | B7 |  |  |  |  |  |  | binds | binding result [13]: binds
8 | B8 | 173 nM | 0.0033 s⁻¹ | 19000 M⁻¹ s⁻¹ | 31 nM | 0.0011 s⁻¹ | 37000 M⁻¹ s⁻¹ | no binding | up-regulation of ICAM expression by NHDF cells (flow cytometry, 36 h, 20 nM) [8]: 2.5 fold; binding result [9]: no binding; Kd [12]: 180 nM; fold lower affinity than LIGHT t66 [12]: > 40 fold
9 | B9 |  |  |  |  |  |  |  | IC50 for inhibition of HCMV pp28 expression (western blot) [14]: ~0.01 nM; anti-viral activity against LTα1β2 and LIGHT (pp28 expression) [14]: ≥ 40 fold
